We go through two molecules from publication PMC12056017.

The target in data set [1] is PD-1 ligand (PD-L1) fused to an intracellular monomeric green fluorescent protein (mGFP), Q9NZQ7. The experiment in a line: DNA-PAINT super-resolution microscopy with nearest-neighbour analysis (SPINNA); CHO cells co-expressing CD80-mCherry and PD-L1-mEGFP, fixed with 4% PFA; labelled with anti-mCherry and anti-GFP nanobodies; two-round Exchange-PAINT, ~3 nm localization precision; model of monomers, homodimers …. Conditions: other: DNA-PAINT super-resolution microscopy with nearest-neighbour analysis (SPINNA).

Data set [2] has as its target T1, CD80 fused to intracellular monomeric Cherry (mCherry), P33681.
T1 chain: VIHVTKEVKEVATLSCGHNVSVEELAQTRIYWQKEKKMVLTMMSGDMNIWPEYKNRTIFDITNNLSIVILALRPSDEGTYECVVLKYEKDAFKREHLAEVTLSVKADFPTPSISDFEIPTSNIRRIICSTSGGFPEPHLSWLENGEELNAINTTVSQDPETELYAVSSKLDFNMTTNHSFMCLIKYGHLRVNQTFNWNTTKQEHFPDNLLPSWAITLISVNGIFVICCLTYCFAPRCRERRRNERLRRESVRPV
The data set is described as follows: DNA-PAINT super-resolution microscopy with nearest-neighbour analysis (SPINNA); CHO cells co-expressing CD80-mCherry and PD-L1-mEGFP, fixed with 4% PFA; labelled with anti-mCherry and anti-GFP nanobodies; two-round Exchange-PAINT, ~3 nm localization precision; model of monomers, homodimers and heterodimers fitted to nearest-neighbour distances with density masks; 3 cells. The settings on record: remark: other sources report otherwise.

Data set [3] deals with T1, CD80 fused to intracellular monomeric …. The description is as above. The settings on record: remark: other sources report otherwise.

Chain of PD-1 ligand (PD-L1) fused to an intracellular monomeric green fluorescent protein (mGFP), Q9NZQ7 (Q9NZQ7 19-290): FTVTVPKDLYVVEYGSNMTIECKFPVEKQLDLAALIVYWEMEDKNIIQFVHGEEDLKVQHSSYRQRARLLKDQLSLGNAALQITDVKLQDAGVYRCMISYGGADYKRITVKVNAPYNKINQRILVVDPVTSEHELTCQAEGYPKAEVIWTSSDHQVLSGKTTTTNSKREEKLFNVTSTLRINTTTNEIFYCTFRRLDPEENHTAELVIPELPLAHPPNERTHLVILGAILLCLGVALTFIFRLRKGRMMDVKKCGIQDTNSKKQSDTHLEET

B1: CD80 fused to intracellular monomeric Cherry (mCherry) (protein)
chain: VIHVTKEVKEVATLSCGHNVSVEELAQTRIYWQKEKKMVLTMMSGDMNIWPEYKNRTIFDITNNLSIVILALRPSDEGTYECVVLKYEKDAFKREHLAEVTLSVKADFPTPSISDFEIPTSNIRRIICSTSGGFPEPHLSWLENGEELNAINTTVSQDPETELYAVSSKLDFNMTTNHSFMCLIKYGHLRVNQTFNWNTTKQEHFPDNLLPSWAITLISVNGIFVICCLTYCFAPRCRERRRNERLRRESVRPV
Consider B1, for which the “percent of all molecules in heterodimers” value in data set [1] was “PD-L1 and CD80 heterodimers (27 ± 5) %”.

B2: CD80 fused to intracellular monomeric Cherry (mCherry), P33681 35-288 (ligand)
chain: VIHVTKEVKEVATLSCGHNVSVEELAQTRIYWQKEKKMVLTMMSGDMNIWPEYKNRTIFDITNNLSIVILALRPSDEGTYECVVLKYEKDAFKREHLAEVTLSVKADFPTPSISDFEIPTSNIRRIICSTSGGFPEPHLSWLENGEELNAINTTVSQDPETELYAVSSKLDFNMTTNHSFMCLIKYGHLRVNQTFNWNTTKQEHFPDNLLPSWAITLISVNGIFVICCLTYCFAPRCRERRRNERLRRESVRPV
For the molecule B2, the percent of all molecules in homodimers in data set [2] stood at 11%; in data set [3], 9%.
